In this series the test system is Bacillus subtilis DB104 (SP-AmyQ fusion secretion). The series can be described thus: AmyQ secretion efficiency, weighted average sort bin (1 = best secretion, 10 = worst) (bin number (weighted average, 1-10)); higher = lower secretion efficiency. In a few lines:
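B. subtilis DB104 library expressing mature AmyQ fused to designed signal peptides (amyE-integrated) was encapsulated at about 0.3 cells per ~65 nL alginate bead with fluorescein-starch, grown about 13 h at room temperature and nile red stained. Occupied beads were sorted by large-particle flow cytometry into 10 equally populated bins by green/red fluorescence ratio, and each bin's amplicons were Illumina-sequenced. Secretion score is the read-frequency-weighted average bin number, normalised to beads per bin, excluding low-abundance sequences.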

Where “and” joins values, the source holds several entries; their conditions need not be identical. Identical values can stand only once.

Turning to MRMLWRSLALCGLALTLAPCAQVAEP, the AmyQ secretion efficiency was determined as 6.05.
As for MRMLWRSLALCGLALTLAPCAQWAEP, the figure is 5.9; as for MRMLWRSLALCGLALTLAPCCQAAEP, 1.93; as for MRMLWRSLALCGLALTLAPCFVVTPASAQAAEP, 2.23.
For MRMLWRSLALCGLALTLAPCMQAAEP the value was 1.94; for MRMLWRSLALCGLALTLAPCPQAAEP, 6.73.
MRMLWRSLALCGLALTLAPCTGTAQAAEP yielded an AmyQ secretion efficiency of 1.82.
Regarding MRMLWRSLALCGLALTLAPCVQAAEP, the AmyQ secretion efficiency stood at 1.79.
For the sequence MRMLWRSLALCGLALTLAPCWQAAEP, the AmyQ secretion efficiency was 5.47.
For MRMLWRSRRKCKRRLTLAPCAQAAEP the value was 5.33; for MRMLWRSSSQCGLALTLAPCAQAAEP, 8.18; for MRNLTKFLLLLAFLCMAAQMVFVTHASAEES, 3.58.
For MRNLTKMMNTSLLLAGLCTAAQMVFVTHASAEES the value was 2.48; for MRNLTKTKRRKAGLCTAAQMVFVTHASAEES, 6.94.
As for MRNLTKTSLLLAGLCQMVFVTHASAEES, the figure is 3.18; as for MRNLTKTSLLLAGLCTAAEEEEEDHASAEES, 6.56.
Take MRNLTKTSLLLAGLCTAAIMVFVIHASAEES: the AmyQ secretion efficiency is 5.76.
As for MRNLTKTSLLLAGLCTAAIQMVFVTHASAEES, the figure is 3.32 and 3.1.
For MRNLTKTSLLLAGLCTAAKKKFVTHASAEES the value was 8.31; for MRNLTKTSLLLAGLCTAAQMVFVTHASAADE, 2.81; for MRNLTKTSLLLAGLCTAAQMVFVTHASAAKR, 2.59.
As for MRNLTKTSLLLAGLCTAAQMVFVTHASAAPS, the figure is 1.69.
With MRNLTKTSLLLAGLCTAAQMVFVTHASAASK, the AmyQ secretion efficiency came to 1.6.
The sequence MRNLTKTSLLLAGLCTAAQMVFVTHASAATD gave an AmyQ secretion efficiency of 2.35.
As for MRNLTKTSLLLAGLCTAAQMVFVTHASADDE, the figure is 5.02.
As for MRNLTKTSLLLAGLCTAAQMVFVTHASAKKK, the figure is 3.84; as for MRNLTKTSLLLAGLCTAAQMVFVTHASCEES, 4.5.
As for MRNLTKTSLLLAGLCTAAQMVFVTHASGEES, the figure is 2.76; as for MRNLTKTSLLLAGLCTAAQMVFVTHASLEES, 3.72.
As to MRNLTKTSLLLAGLCTAAQMVFVTHASSEES, the AmyQ secretion efficiency was found to be 4.13.
For MRNLTKTSLLLAGLCTAAQMVFVTHCSAEES the value was 2.79; for MRNLTKTSLLLAGLCTAAQMVFVTHGSAEES, 4.68.
As for MRNLTKTSLLLAGLCTAAQMVFVTHHSAEES, the figure is 4.26; as for MRNLTKTSLLLAGLCTAAQMVFVTHISAEES, 3.9; as for MRNLTKTSLLLAGLCTAAQMVFVTHLSAEES, 3.52.
As for MRNLTKTSLLLAGLCTAAQMVFVTHMSAEES, the figure is 3.28; as for MRNLTKTSLLLAGLCTAAQMVFVTHSSAEES, 4.02; as for MRNLTKTSLLLAGLCTAAQMVFVTHSTASAEES, 3.1.
MRNLTKTSLLLAGLCTAAQMVFVTHTFTFVGASAEES: the AmyQ secretion efficiency worked out at 7.25.
In turn, MRNLTKTSLLLAGLCTAAQMVFVTHTSAEES had an AmyQ secretion efficiency of 3.23.
For MRNLTKTSLLLAGLCTAAQMVFVTHVSAEES the value was 3.09; for MRNLTKTSLLLAGLCTAAQMVFVTHWSAEES, 8.27.
For MRNLTKTSLLLAGLCTAAQSEFVTHASAEES the value was 4.61; for MRNLTKTSLLLAGLCTAARRKKKKHASAEES, 7.09; for MRNLTKYTTSKGGLCTAAQMVFVTHASAEES, 7.66.
As for MRNLTKYYTTLAGLCTAAQMVFVTHASAEES, the figure is 3.01; as for MRNRRKTSLLLAGLCTAAQMVFVTHASAEES, 3.33.
MRPKRPRKLILSAVLFLSCFFGARQTEASASKR: the AmyQ secretion efficiency came to 4.56.
As for MRPLILSAVLFLSCFFGARQTEASASKR, the figure is 3.63.
For the sequence MRPQFPLILSAVLFLSCFFGARQTEASASKR, the AmyQ secretion efficiency was 4.77.
As for MRPVFPGKGQYVLFLSCFFGARQTEASASKR, the figure is 6.9; as for MRPVFPIMNNILLILSAVLFLSCFFGARQTEASASKR, 1.84; as for MRPVFPLILIAVLFLFCFSFGARQTEASASKR, 2.07.
As for MRPVFPLILSAVLFLFGARQTEASASKR, the figure is 5.49; as for MRPVFPLILSAVLFLSCFDDDDDTEASASKR, 4.17; as for MRPVFPLILSAVLFLSCFEGAEQTEASASKR, 3.25.
MRPVFPLILSAVLFLSCFFAATVFFASASKR registered an AmyQ secretion efficiency of 7.
For MRPVFPLILSAVLFLSCFFFGARQTEASASKR the value was 1.8; for MRPVFPLILSAVLFLSCFFGAREASASKR, 1.24; for MRPVFPLILSAVLFLSCFFGARQTEASAEEE, 2.93.
Sequence MRPVFPLILSAVLFLSCFFGARQTEASARKR yielded an AmyQ secretion efficiency of 2.01.
For MRPVFPLILSAVLFLSCFFGARQTEASASED the value was 3.13; for MRPVFPLILSAVLFLSCFFGARQTEASASPF, 2.82.
For MRPVFPLILSAVLFLSCFFGARQTEASASSD the value was 1.96.
For MRPVFPLILSAVLFLSCFFGARQTEASCSKR the value was 3.44; for MRPVFPLILSAVLFLSCFFGARQTEASDSKR, 2.12.
In the case of MRPVFPLILSAVLFLSCFFGARQTEASESKR, the AmyQ secretion efficiency stood at 2.54.
As for MRPVFPLILSAVLFLSCFFGARQTEASFSKR, the figure is 2.95.
For MRPVFPLILSAVLFLSCFFGARQTEASGSKR the value was 1.87; for MRPVFPLILSAVLFLSCFFGARQTEASHSKR, 2.35; for MRPVFPLILSAVLFLSCFFGARQTEASISKR, 3.
As for MRPVFPLILSAVLFLSCFFGARQTEASKSKR, the figure is 2.19; as for MRPVFPLILSAVLFLSCFFGARQTEASLSKR, 3.68.
As to MRPVFPLILSAVLFLSCFFGARQTEASMSKR, the AmyQ secretion efficiency came to 2.44.
As to MRPVFPLILSAVLFLSCFFGARQTEASNSKR, the AmyQ secretion efficiency is 2.41.
For MRPVFPLILSAVLFLSCFFGARQTEASPSKR the value was 2.1.
MRPVFPLILSAVLFLSCFFGARQTEASRSKR returned an AmyQ secretion efficiency of 2.45.
As for MRPVFPLILSAVLFLSCFFGARQTEASSSKR, the figure is 3.03.
As for MRPVFPLILSAVLFLSCFFGARQTEASTSKR, the figure is 2.25.
As for MRPVFPLILSAVLFLSCFFGARQTEASVSKR, the figure is 2.77; as for MRPVFPLILSAVLFLSCFFGARQTEASWSKR, 4.13; as for MRPVFPLILSAVLFLSCFFGARQTEASYSKR, 2.56.
As for MRPVFPLILSAVLFLSCFFGARQTEESASKR, the AmyQ secretion efficiency stood at 7.33.
MRPVFPLILSAVLFLSCFFGARQTEFSASKR came in with an AmyQ secretion efficiency of 7.3.
For MRPVFPLILSAVLFLSCFFGARQTEGSASKR the value was 4.92; for MRPVFPLILSAVLFLSCFFGARQTEHSASKR, 6.3; for MRPVFPLILSAVLFLSCFFGARQTEISASKR, 2.64.
For MRPVFPLILSAVLFLSCFFGARQTEKSASKR the value was 6.8.
For MRPVFPLILSAVLFLSCFFGARQTELSASKR the value was 3.47; for MRPVFPLILSAVLFLSCFFGARQTEMSASKR, 3.55; for MRPVFPLILSAVLFLSCFFGARQTENSASKR, 6.14.
On to MRPVFPLILSAVLFLSCFFGARQTEPSASKR, for which the AmyQ secretion efficiency is 5.61.
For MRPVFPLILSAVLFLSCFFGARQTERSASKR the value was 6.76; for MRPVFPLILSAVLFLSCFFGARQTESFASASKR, 4.97.
As for MRPVFPLILSAVLFLSCFFGARQTESSASKR, the figure is 3.91.
As for MRPVFPLILSAVLFLSCFFGARQTETSASKR, the figure is 5.36; as for MRPVFPLILSAVLFLSCFFGARQTEVSASKR, 2.58.
For the sequence MRPVFPLILSAVLFLSCFFGARQTEWSASKR, the AmyQ secretion efficiency came to 7.27.
Take MRPVFPLILSAVLFLSCFFGARQTEYSASKR: the AmyQ secretion efficiency was 8.3.
The sequence MRPVFPLILSAVLFLSCFFGATQTEASASKR came in with an AmyQ secretion efficiency of 2.13.
For MRPVFPLILSAVLFLSCFFIAGATEASASKR the value was 3.68; for MRPVFPLILSAVLFLSCFKKKRRTRASASKR, 6.66; for MRPVFPLILSAVLFLSCFRASASKR, 6.81.
For MRPVFPLILSAVLFLSCFRGARQTKASASKR the value was 7.54; for “MRPVFPLILSAVLFLSCFSTSVAITVTFGARQTEASASKR”, 3.9; for MRPVFPLILSAVLFLSCFSVSTFFGARQTEASASKR, 2.65.
As for MRPVFPLILSAVLFLSCFTGARQTEASASKR, the figure is 3.07.

The values are drawn from the supplement of paper PMC9942255.
